Results on two molecules are retold here after patent US20030092624A1 (YISSUM RESEARCH DEVELOPMENT COMPANY OF THE HEBREW …, published 2003).

The target in data set [1] is T1, Citrate Synthase (CS), Roche Diagnostics (UniProt P00889 28-464).
T1 sequence (looked up): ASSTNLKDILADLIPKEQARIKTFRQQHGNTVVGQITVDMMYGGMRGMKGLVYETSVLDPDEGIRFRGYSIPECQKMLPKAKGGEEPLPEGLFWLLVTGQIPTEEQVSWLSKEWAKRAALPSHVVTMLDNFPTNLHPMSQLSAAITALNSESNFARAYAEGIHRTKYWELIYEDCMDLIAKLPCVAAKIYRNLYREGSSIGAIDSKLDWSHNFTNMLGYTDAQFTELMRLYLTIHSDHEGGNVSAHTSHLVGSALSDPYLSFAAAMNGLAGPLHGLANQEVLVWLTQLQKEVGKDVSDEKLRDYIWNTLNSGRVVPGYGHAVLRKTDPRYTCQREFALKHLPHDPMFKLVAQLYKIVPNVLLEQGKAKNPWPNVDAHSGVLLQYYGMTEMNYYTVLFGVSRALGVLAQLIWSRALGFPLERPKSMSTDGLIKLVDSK
Put plainly: cell-based or functional assay.

Data set [2] addresses Horseradish Peroxidase (HRP), Sigma (horseradish) (UniProt P00433). Put plainly: cell-based or functional assay.
Data set [3] addresses alpha-amylase (Sigma, A 6380). The data set can be described thus: cell-based or functional assay.
Data set [4] concerns the target superoxide dismutase (SOD), cosmetic grade ('dismutin', Pentapharm Ltd.). Put plainly: cell-based or functional assay.
Data set [5] deals with T2, Horseradish Peroxidase (HRP), Sigma (horseradish, UniProt P00433 31-338).
T2 sequence (looked up): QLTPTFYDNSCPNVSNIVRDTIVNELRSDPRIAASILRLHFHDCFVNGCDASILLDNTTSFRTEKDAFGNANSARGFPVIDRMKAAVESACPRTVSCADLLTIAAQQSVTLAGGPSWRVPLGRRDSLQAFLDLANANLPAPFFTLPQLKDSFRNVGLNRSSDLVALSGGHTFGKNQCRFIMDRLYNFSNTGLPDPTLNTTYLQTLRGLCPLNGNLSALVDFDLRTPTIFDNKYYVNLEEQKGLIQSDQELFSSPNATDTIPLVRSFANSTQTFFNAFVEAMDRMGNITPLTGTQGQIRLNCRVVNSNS
Put plainly: cell-based or functional assay.

Data set [6] concerns the molecule itself. Put plainly: SDS-tricine PAGE; self-association of SP1 monomers.

As for “recombinant CBD-SP1 fusion protein (32.4 kDa monomer) expressed in E. coli from pET-CBD-180-SP1”, in data set [1], the remaining CS enzymatic activity at 43° C. after 40 minutes, CS:CBD-SP1 monomeric molar ratio of 1:20 came out at 73% and the remaining CS enzymatic activity at 43° C. after 40 minutes, CS:CBD-SP1 ratio of 1:5 was found to be 33%.

B1: native SP1 protein purified from aspen plants (116 kDa oligomer / 12.4 kDa monomer) (other)
chain: MATRTPKLVKHTLLTRFKDEITREQIDNYINDYTNLLDLIPSMKSFNWGTDLGMESAELNRGYTHAFESTFESKSGLQEYLDSAALAAFAEGFLPTLSQRLVIDYFLY
notes: Homo-oligomer; On Western blots the protein was separated by SDS-PAGE first; also called purified SP1; plant SP1 protein
Turning to B1, the HRP activity rescued after room temperature inactivation in data set [2] turned out to be 10%. In data set [3], this molecule registered an alpha-amylase activity after 2 hours in 2 M CaCl2 of 50%, an increase in alpha-amylase activity 2 hours after SP1 addition of 60% and a remaining alpha-amylase activity after one-week incubation at room temperature of more than 40%. Further, the SOD activity compared to SP1 untreated SOD in data set [4] was 60%. Further, in data set [1], the “protection of CS activity against heat inactivation at 43° C., CS:SP1 ratio of 1:5, 40 minutes” value is 22%; the “remaining CS enzymatic activity at 43° C., CS:SP1 ratio of 1:50, 15 minutes” value is approximately 100%; the “remaining CS enzymatic activity at 43° C., CS:SP1 ratio of 1:50, 40 minutes” value is not below 93%. Moreover, in data set [5], the “protection of HRP activity at 55° C. compared with BSA at 1:300” value is approximately 3 fold; the “protection of HRP activity at 55° C., HRP:SP1 molar ratio of 1:300, 60 minutes” value was more than 60%; the “remaining HRP activity at 55° C., HRP:SP1 molar ratio of 1:300, 2 hours” value is 53%. Moreover, the binding result in data set [6] is on record as “binds”.
